{"source": "patent US7708999B2", "about": "“Remedies for arthritis” (Kyowa Hakko Kirin Co., Ltd., priority 2001, dated 2010)", "molecules": {"B1": {"name": "KM1334: anti-FGF-8 neutralizing monoclonal antibody produced by hybridoma KM1334 (FERM BP-5451), mouse IgG1 subclass (antibody, V domains shown)", "VH": "QVQLQQSGAEVARPGASVKLSCKASGYTFTDYYLNWVKQRSGQGLEWIGEIDPGSDSIYYNENLEGRATLTADKSSSTAYMQLNSLTSEDSAVYFCARYGYSRYDVRFVYWGQGTLVTVST", "VL": "DVLMTQTPLSLPVSLGDQASISCRSSQSLVHSNGRTYLEWYLQKPGQSPKVLIYKVSNRISGVPDRFSGSGSGTDFTLKISRVEAEDLGVYFCFQGSHVPYTFGGGTKLEIK"}}, "key": {"FGF-8 [1]": {"target": "T1, FGF-8 (Homo sapiens, UniProt P55075)", "T1 construct": "purchased R & D", "T1 sequence (P55075 23-215 isoform P55075-3 limits assumed)": "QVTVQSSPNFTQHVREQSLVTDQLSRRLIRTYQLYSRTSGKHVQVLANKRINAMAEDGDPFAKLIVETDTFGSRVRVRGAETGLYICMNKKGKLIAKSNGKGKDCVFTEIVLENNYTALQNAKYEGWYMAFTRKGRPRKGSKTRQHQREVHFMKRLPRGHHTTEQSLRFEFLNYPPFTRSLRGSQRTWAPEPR", "assay": "Inhibition by antibody of FGF-8-promoted production of matrix metalloproteinase-3 from rabbit chondrocytes", "format": "cell-based", "conditions": "FGF-8 100 ng/mL, 48 hours", "description": "Rabbit articular chondrocytes were isolated and cultured by the method described in Example 1. After the chondrocytes became confluent, the culture solution was replaced with 0.5 vol % FBS/DMEM, followed by the culturing for 24 hours. The culture solution was removed, and 1 mL of 0.5 vol % FBS/DMEM (non-stimulated group), 0.5 vol % FBS/DMEM comprising FGF-8 (100 ng/mL)(0 group) or 0.5 vol % FBS/DMEM comprising FGF-8 (100 ng/mL) and anti-FGF-8 neutralizing antibody KM1334 (1, 3 or 10 μg/mL) was added, followed by the culturing for 48 hours. After 48 hours, the culture medium was recovered, the matrix metalloproteinase-3 concentration in the culture medium was measured using rabbit matrix metalloproteinase-3 ELISA system (manufactured by Amersham Biosciences). Three experiments were performed for each condition, and the mean values and the standard error were calculated."}, "FGF-8 [2]": {"target": "T1, FGF-8", "assay": "Inhibition by antibody of FGF-8-promoted growth of human synovial cells", "format": "cell-based", "conditions": "FGF-8 500 ng/mL", "description": "Rabbit synovial cells were collected by the method of Hamilton et al. (Hamilton J. A. and Slywka J., J. Immunol. 126, 851-855, 1981). The isolated synovial cells were suspended in RPMI 1640 medium comprising 10 vol % FBS (FBS-comprising RPMI 1640 medium is hereinafter referred to as FBS/RPMI 1640), and 10,000 cells was inoculated at each well of a 96-well culture plate. After 24 hours of the culturing, the culture medium of each well was removed, and 200 μL of 0.2 vol % FBS/RPMI 1640 (non-stimulated group) or 0.2 vol % FBS/RPMI 1640 comprising FGF-8 (1, 10 or 100 ng/mL) was added. […] The culturing was further performed for 24 hours, and the radioactivity of [^3H]thymidine incorporated in the cells was measured using a liquid scintillation counter (1205 Beta Plate, manufactured by Perkin Elmer Life Science Japan). Six experiments were performed for each condition, and the mean values and the standard error were calculated.\nThe same experiment as in Example 3 was performed using human synovial cells derived from the rheumatoid arthritis patient (procured from Toyobo). […] Six experiments were performed for each condition, and the mean values and the standard error were calculated."}, "[3]": {"test_system": "mouse collagen-induced arthritis model", "assay": "Mouse collagen-induced arthritis model", "format": "in vivo", "conditions": "day 42; 2 mg/mL, 200 μL per mouse intraperitoneally; compared to saline administrated group", "description": "The mouse collagen-induced arthritis model was prepared in the following manner according to the method of Kamada et al., (Kamada H. et al., Jpn. J. Pharmacol., 70, 169-175, 1996) using DBA/1J mice (male, 7 weeks old, Japan Charles River).\nA bovine cartilage-derived type II collagen solution (manufactured by Collagen Gijutsu Kenshu) was mixed with a Freund's complete adjuvant (manufactured by Iatron) under ice cooling to form an emulsion which was adjusted such that the final concentration of the type II collagen became 1.5 mg/mL. The emulsion was intradermally injected in amount of 100 μL at the base of the tail of the mouse for sensitization. Twenty-one days later, the additional immunization was performed in the same manner. One group consisted of 10 mice. Anti-FGF-8 neutralizing antibody KM1334 was dissolved in a saline (manufactured by Otsuka Seiyaku Kojo) to a final concentration of 2 mg/mL, and the solution was intraperitoneally administered to a KM1334 administrated group at a dose of 200 μL for each mouse once a day on days 21, 25, 28, 32, 35 and 39 from the initial sensitization of the mouse collagen-induced arthritis model. […] The change with time of edemas of all limbs in collagen-induced arthritis was evaluated by the scoring from 0 to 4 in each limb to a total of 16 at the maximum score in all limbs. […]"}, "FGF-8 [4]": {"target": "T1, FGF-8", "assay": "Inhibition by antibody of FGF-8-promoted growth of rabbit synovial cells", "format": "cell-based", "conditions": "FGF-8 100 ng/mL, 0.1, 0.3, 1, 3 or 10 μg/ml tested", "description": "Rabbit synovial cells were collected by the method of Hamilton et al. (Hamilton J. A. and Slywka J., J. Immunol. 126, 851-855, 1981). The isolated synovial cells were suspended in RPMI 1640 medium comprising 10 vol % FBS (FBS-comprising RPMI 1640 medium is hereinafter referred to as FBS/RPMI 1640), and 10,000 cells was inoculated at each well of a 96-well culture plate. After 24 hours of the culturing, the culture medium of each well was removed, and 200 μL of 0.2 vol % FBS/RPMI 1640 (non-stimulated group) or 0.2 vol % FBS/RPMI 1640 comprising FGF-8 (1, 10 or 100 ng/mL) was added. When the activity of the anti-FGF-8 neutralizing antibody was examined, 200 μL of 0.2 vol % FBS/RPMI 1640 comprising FGF-8 (100 ng/mL) (0 group) or 0.2 vol % FBS/RPMI 1640 comprising FGF-8 (100 ng/mL) and anti-FGF-8 neutralizing antibody KM1334 (0.1, 0.3, 1, 3 or 10 μg/ml) was added to each well. After 48 hours of the culturing, 9.25 kBq per well of [^3H]thymidine was added. The culturing was further performed for 24 hours, and the radioactivity of [^3H]thymidine incorporated in the cells was measured using a liquid scintillation counter (1205 Beta Plate, manufactured by Perkin Elmer Life Science Japan). Six experiments were performed for each condition, and the mean values and the standard error were calculated."}}}
{"molecule": "B1", "values": [{"measurement": "antibody concentration at which the production of matrix metalloproteinase-3 from the chondrocytes with FGF-8 was significantly inhibited", "setting": "FGF-8 [1]", "result": "≥ 1", "unit": "µg/mL"}, {"measurement": "percent inhibition of matrix metalloproteinase-3 production", "setting": "FGF-8 [1]; antibody 1 μg/mL", "result": 72, "unit": "%"}, {"measurement": "percent inhibition of matrix metalloproteinase-3 production", "setting": "FGF-8 [1]; antibody 3 μg/mL", "result": 74, "unit": "%"}, {"measurement": "percent inhibition of matrix metalloproteinase-3 production", "setting": "FGF-8 [1]; antibody 10 μg/mL", "result": 100, "unit": "%"}, {"measurement": "antibody concentration from which the FGF-8-dependent incorporation of [3H]thymidine was significantly inhibited", "setting": "FGF-8 [2]", "result": "≥ 1", "unit": "µg/mL"}, {"measurement": "inhibition of the arthritic score", "setting": "[3]", "result": 34, "unit": "%"}, {"measurement": "antibody concentration from which the FGF-8-dependent incorporation of [3H]thymidine was significantly inhibited", "setting": "FGF-8 [4]", "result": "≥ 0.3", "unit": "µg/mL"}]}
